Test [1] concerns the target T1, human FcRH5 protein fragment (soluble) (human, UniProt Q96RD9 16-851).
T1 construct: whole entry named; also called soluble human FcRH5; Human FcRH5 (BIACORE analyte)
T1 sequence: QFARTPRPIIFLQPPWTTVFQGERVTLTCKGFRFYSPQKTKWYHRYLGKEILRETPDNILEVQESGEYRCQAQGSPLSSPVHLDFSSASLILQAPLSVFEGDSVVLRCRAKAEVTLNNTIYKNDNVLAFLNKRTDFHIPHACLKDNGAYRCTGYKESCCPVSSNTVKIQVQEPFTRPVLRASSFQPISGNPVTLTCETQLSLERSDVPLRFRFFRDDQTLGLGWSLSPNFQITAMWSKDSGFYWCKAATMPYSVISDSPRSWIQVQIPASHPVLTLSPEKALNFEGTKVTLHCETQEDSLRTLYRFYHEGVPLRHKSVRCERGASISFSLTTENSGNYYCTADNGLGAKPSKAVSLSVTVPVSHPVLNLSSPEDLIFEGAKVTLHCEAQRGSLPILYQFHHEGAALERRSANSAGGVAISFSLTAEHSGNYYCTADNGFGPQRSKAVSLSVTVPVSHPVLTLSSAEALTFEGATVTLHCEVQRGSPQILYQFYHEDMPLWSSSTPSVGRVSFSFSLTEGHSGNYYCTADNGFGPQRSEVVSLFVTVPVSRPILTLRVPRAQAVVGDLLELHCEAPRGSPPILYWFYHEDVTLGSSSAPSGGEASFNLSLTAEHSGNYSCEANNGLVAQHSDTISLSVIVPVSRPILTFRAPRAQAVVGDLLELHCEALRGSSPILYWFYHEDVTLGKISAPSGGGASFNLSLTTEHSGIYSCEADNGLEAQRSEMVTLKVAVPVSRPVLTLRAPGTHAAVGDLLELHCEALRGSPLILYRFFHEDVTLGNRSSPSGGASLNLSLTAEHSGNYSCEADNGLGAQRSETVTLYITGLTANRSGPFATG
The test can be described thus: SPR (BIACORE), TDB captured as ligand, Hu FcRH5 as analyte, 25 °C, 1:1 binding model.

For test [2], the target named is T1, human FcRH5 protein fragment (soluble). Kind of test: BIACORE.
Test [3] concerns the target T2, cynomolgus FcRH5 protein fragment (soluble) (cynomolgus monkey).
T2 construct: whole entry named; also called Cyno FcRH5 (BIACORE analyte)
T2 chain: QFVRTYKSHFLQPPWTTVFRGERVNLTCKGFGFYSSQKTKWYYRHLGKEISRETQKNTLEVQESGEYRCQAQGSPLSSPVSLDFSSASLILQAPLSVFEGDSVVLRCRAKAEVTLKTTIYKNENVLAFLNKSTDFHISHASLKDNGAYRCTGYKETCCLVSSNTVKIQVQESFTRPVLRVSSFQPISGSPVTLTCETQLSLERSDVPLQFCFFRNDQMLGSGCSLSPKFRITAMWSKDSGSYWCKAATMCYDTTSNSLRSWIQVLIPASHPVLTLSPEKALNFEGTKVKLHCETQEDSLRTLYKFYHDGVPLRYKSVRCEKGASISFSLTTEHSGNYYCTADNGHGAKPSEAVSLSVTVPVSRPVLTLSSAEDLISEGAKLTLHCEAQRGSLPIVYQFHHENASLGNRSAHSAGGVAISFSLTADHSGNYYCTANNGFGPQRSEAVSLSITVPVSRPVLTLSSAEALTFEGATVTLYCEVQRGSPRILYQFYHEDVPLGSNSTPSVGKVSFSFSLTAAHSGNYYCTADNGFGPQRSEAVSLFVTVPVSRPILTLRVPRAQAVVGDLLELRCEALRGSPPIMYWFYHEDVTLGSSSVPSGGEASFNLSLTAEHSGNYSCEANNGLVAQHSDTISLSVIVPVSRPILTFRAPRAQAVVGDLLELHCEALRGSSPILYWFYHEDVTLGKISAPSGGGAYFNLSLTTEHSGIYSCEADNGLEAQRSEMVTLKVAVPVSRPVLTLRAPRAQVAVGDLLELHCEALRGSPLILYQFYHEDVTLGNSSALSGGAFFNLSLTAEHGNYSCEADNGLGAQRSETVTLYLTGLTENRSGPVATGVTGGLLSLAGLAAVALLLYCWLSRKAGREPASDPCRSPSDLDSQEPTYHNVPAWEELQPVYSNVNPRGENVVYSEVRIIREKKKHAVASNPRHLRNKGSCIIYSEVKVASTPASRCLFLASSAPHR
Kind of test: BIACORE.

In test [4] the target is T3, cynomolgus FcRH5 (full-length, on cells) (cynomolgus monkey).
T3 construct: also called SVT2-Cyno-FcRH5; cyno FcRH5
T3 chain: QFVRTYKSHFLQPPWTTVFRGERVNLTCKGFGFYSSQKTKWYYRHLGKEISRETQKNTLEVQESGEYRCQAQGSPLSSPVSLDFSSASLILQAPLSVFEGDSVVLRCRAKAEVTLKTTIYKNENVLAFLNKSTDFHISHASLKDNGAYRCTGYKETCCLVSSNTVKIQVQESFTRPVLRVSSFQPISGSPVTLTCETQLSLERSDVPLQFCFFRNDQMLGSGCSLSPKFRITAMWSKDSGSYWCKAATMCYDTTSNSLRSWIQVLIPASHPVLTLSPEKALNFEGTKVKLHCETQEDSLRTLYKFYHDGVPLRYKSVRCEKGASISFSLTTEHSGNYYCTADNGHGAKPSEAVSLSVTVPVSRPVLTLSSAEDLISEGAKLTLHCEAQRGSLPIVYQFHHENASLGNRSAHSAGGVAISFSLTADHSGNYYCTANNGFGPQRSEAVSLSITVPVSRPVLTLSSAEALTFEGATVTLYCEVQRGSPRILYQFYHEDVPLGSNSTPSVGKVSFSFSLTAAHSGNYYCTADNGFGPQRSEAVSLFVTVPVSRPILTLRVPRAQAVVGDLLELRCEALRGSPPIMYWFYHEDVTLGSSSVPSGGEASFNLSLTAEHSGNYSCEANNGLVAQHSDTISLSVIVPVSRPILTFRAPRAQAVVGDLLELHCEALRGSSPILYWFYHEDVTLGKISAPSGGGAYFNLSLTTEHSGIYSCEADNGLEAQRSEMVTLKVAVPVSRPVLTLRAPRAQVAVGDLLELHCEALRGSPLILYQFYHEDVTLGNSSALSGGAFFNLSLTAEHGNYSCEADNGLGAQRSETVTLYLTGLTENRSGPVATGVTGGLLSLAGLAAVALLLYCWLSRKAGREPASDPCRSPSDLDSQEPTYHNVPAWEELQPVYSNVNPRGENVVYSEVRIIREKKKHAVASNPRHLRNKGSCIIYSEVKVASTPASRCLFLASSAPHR
The test can be described thus: FACS, SVT2 cells.

Test [5] addresses T4, cynomolgus E11 domain protein (cynomolgus monkey).
T4 construct: whole entry named; also called cyno E11
T4 chain: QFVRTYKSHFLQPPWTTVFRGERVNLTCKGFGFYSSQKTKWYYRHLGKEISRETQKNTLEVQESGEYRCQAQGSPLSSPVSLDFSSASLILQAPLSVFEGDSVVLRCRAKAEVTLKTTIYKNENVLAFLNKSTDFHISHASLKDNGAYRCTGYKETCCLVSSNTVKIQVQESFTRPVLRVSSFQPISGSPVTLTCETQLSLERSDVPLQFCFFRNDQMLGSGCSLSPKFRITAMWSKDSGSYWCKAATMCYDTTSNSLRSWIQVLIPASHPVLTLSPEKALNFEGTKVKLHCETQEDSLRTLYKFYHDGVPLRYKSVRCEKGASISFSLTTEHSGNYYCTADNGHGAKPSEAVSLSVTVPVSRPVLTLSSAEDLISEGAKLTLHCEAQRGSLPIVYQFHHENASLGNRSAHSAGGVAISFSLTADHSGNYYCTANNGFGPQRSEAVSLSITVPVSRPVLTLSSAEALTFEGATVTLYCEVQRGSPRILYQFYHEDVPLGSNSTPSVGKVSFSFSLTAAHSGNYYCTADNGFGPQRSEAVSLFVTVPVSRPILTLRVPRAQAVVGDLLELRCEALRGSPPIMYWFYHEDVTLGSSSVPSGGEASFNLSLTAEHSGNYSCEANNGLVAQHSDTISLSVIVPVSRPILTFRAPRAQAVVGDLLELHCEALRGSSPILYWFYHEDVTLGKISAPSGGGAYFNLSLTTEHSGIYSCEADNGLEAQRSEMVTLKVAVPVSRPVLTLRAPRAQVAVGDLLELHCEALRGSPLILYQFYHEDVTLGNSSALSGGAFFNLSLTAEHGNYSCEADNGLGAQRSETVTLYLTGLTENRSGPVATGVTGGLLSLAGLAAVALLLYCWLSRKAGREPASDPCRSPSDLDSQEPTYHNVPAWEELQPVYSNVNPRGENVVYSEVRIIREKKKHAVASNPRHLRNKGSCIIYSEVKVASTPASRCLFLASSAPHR
Kind of test: SPR, IgG capture. How it is done: Briefly, test antibodies were captured on flow cells 2, 3 or 4 with flow cell 1 as a reference on a protein A Series S CM5 chip (GE Life Sciences, Piscataway, NJ). An FcRH5 protein fragment was used as analyte, with a flow rate of 30 μl/minute. Between injections the capture surface was regenerated by a 30 second injection of 10 mM glycine, pH 1.5 at a flow rate of 10 μl/minute. Interactions were assessed at 25° C. in 10 mM HEPES pH 7.4, 150 mM NaCl, 0.05% Tween 20 (HBSP). Reference data from the reference flow cell and from injection of buffer alone was subtracted prior to kinetic analysis. Kinetic information was calculated by fitting data to a 1:1 binding model. Reference subtraction and data fitting were performed using BIAevaluation software (GE Life Sciences, Piscataway, NJ).

B1: hu1G7.v1.4/38E4.v1 TDB (bispecific antibody, V domains shown)
VH 1: EVQLVESGPGLVKPSETLSLTCTVSGFSLTRFGVHWVRQPPGKGLEWLGVIWRGGSTDYNAAFMSRLTISKDNSKNQVSLKLSSVTAADTAVYYCSNHYYGSSDYALDNWGQGTLVTVSS
VL 1: DIQMTQSPSSLSASVGDRVTITCKASQDVRNLVVWFQQKPGKAPKLLIYSGSYRYSGVPSRFSGSGSGTDFTLTISSLQPEDFATYYCQQHYSPPYTFGQGTKVEIK
VH 2: EVQLVQSGAEVKKPGASVKVSCKASGFTFTSYYIHWVRQAPGQGLEWIGWIYPENDNTKYNEKFKDRVTITADTSTSTAYLELSSLRSEDTAVYYCARDGYSRYYFDYWGQGTLVTVSS
VL 2: DIVMTQSPDSLAVSLGERATINCKSSQSLLNSRTRKNYLAWYQQKPGQSPKLLIYWTSTRKSGVPDRFSGSGSGTDFTLTISSLQAEDVAVYYCKQSFILRTFGQGTKVEIK
notes: knob-into-hole TDB; also called 1G7.v1.4 TDB; 1G7.v1.4 (TDB format)
In test [1], B1 returned a Kd of 2.41 nM, a koff of 0.00117 s⁻¹ and an on-rate constant (kon) of 484000 M⁻¹ s⁻¹.

B2: 1G7.v85/38E4.v1 TDB (bispecific antibody, V domains shown)
VH 1: EVQLVESGPGLVKPSETLSLTCTVSGFSLTRFGVHWVRQPPGKGLEWLGVIWRGGSTDYNAAFVSRLTISKDNSKNQVSLKLSSVTAADTAVYYCSNHYYGSSDYALDNWGQGTLVTVSS
VL 1: DIQMTQSPSSLSASVGDRVTITCKASQDVRNLVVWFQQKPGKAPKLLIYSGSYRYSGVPSRFSGSGSGTDFTLTISSLQPEDFATYYCQQHYSPPYTFGQGTKVEIK
VH 2: EVQLVQSGAEVKKPGASVKVSCKASGFTFTSYYIHWVRQAPGQGLEWIGWIYPENDNTKYNEKFKDRVTITADTSTSTAYLELSSLRSEDTAVYYCARDGYSRYYFDYWGQGTLVTVSS
VL 2: DIVMTQSPDSLAVSLGERATINCKSSQSLLNSRTRKNYLAWYQQKPGQSPKLLIYWTSTRKSGVPDRFSGSGSGTDFTLTISSLQAEDVAVYYCKQSFILRTFGQGTKVEIK
notes: knob-into-hole TDB; also called 1G7.v85 TDB; 1G7.v85 (TDB format)
For the molecule B2, the Kd in test [2] was 2.1 nM; in test [3] it was 7.8 nM.

B3: 17B1 (antibody, mouse IgG2a, V domains shown)
VH: QVQLQQSGPELVRPGVSVKISCKGSGYTFTHYAMHWVKQSHTKSLEWIGMISSSSGNTNFNQKFMDKATMTVDKSSTTAYLELARLTFGDSAIYYCARWSYYALFDYWGQGTTVTVSS
VL: ENVLTQSPAIMSASPGEKVTMTCSADSSVDYIHWYQQKSNTSPKLWIYDTSKLASGVPGRFSGSGSGNSYSLTISSMEAEDFATYYCFQGSGYPLTFGSGTKLELK
notes: mouse mAb, Campaign C; recombinant murine IgG2a for SPR
Consider B3, for which the binding result in test [4] was “binds”.

B4: 15G8 (antibody, mouse IgG2a, V domains shown)
VH: EVQLQQSGPELVKPGASVKMSCKASGYTFTNYVIHWMKQKPGQGLEWIGYISPYNDYTKYNEKFEGKATLTSDKSSNTAYMELSSLTSEDSAVYYCARRDYYGSSDYWGQGTTLTVSS
VL: QIVLTQSPAIMSASPGEKVTMTCSASSSVDYMHWYQQKSGTSPKKWIYDTSKLASGVPARFSGSGSGTSYSLTIGSMEAEDAATYYCQQWSSNPPTFGGGTKLEIK
notes: mouse mAb, Campaign C; recombinant murine IgG2a for SPR; also called mAb 15G8
With B4, the “KD difference between human and cynomolgus E11 domains” value in test [5] was around 20 fold.
